# Assay results reported in the supplement of paper PMC10567573.
# B1: NCK2 (parent)
# chain: YTGPSSSGRFAGREWYYGNVTRHQ
# B2: PTPN9 (parent)
# chain: LKGAFPARLKKVLIVGAPIWFRVP
# Variants of: B1
# Assay: protein stability index of a GFP-peptide fusion (GPS, HEK-293T) (PSI 1-6); higher = more stable
# Details: c terminus: a fixed tail appended
# 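Note: lentivirally expressed fusions sorted by FACS into six bins by GFP to DsRed ratio, PSI derived from sequencing read proportions per bin multiplied by bin number.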
row,Variant,protein stability index
1,YTGPSSSGRFAGREWYYGNVTFHQ [R22F],2.65
2,YTGPSSSGRFAGREWYYGNVTGHQ [R22G],2.62
3,YTGPSSSGRFAGREWYYGNVTHHQ [R22H],1.33
4,YTGPSSSGRFAGREWYYGNVTKHQ [R22K],1.46
5,YTGPSSSGRFAGREWYYGNVTLHQ [R22L],1.56
6,YTGPSSSGRFAGREWYYGNVTMHQ [R22M],1.79
7,YTGPSSSGRFAGREWYYGNVTNHQ [R22N],2.35
8,YTGPSSSGRFAGREWYYGNVTPHQ [R22P],1.14
9,YTGPSSSGRFAGREWYYGNVTQHQ [R22Q],2.17
10,YTGPSSSGRFAGREWYYGNVTVHQ [R22V],2.18
11,YTGPSSSGRFAGREWYYGNVTWHQ [R22W],1.61
12,YTGPSSSGRFAGREWYYGNVTYHQ [R22Y],2.17
13,YTGPSSSGRFAGREWYYGNVTRAQ [H23A],2.86
14,YTGPSSSGRFAGREWYYGNVTRCQ [H23C],1.07
15,YTGPSSSGRFAGREWYYGNVTRDQ [H23D],2.52
16,YTGPSSSGRFAGREWYYGNVTREQ [H23E],1.47
17,YTGPSSSGRFAGREWYYGNVTRFQ [H23F],1.79
18,YTGPSSSGRFAGREWYYGNVTRGQ [H23G],1.88
19,YTGPSSSGRFAGREWYYGNVTRIQ [H23I],2
20,YTGPSSSGRFAGREWYYGNVTRKQ [H23K],2.33
21,YTGPSSSGRFAGREWYYGNVTRLQ [H23L],2.81
22,YTGPSSSGRFAGREWYYGNVTRMQ [H23M],1.56
23,YTGPSSSGRFAGREWYYGNVTRNQ [H23N],2.09
24,YTGPSSSGRFAGREWYYGNVTRPQ [H23P],1.23
25,YTGPSSSGRFAGREWYYGNVTRQQ [H23Q],1.31

row,Variant,protein stability index
1,YTGPSSSGRFAGREWYYGNVTRRQ [H23R],1.53
2,YTGPSSSGRFAGREWYYGNVTRSQ [H23S],1.79
3,YTGPSSSGRFAGREWYYGNVTRTQ [H23T],1.46
4,YTGPSSSGRFAGREWYYGNVTRVQ [H23V],1.56
5,YTGPSSSGRFAGREWYYGNVTRWQ [H23W],2.71
6,YTGPSSSGRFAGREWYYGNVTRYQ [H23Y],1.42
7,YTGPSSSGRFAGREWYYGNVTRHA [Q24A],1.96
8,YTGPSSSGRFAGREWYYGNVTRHC [Q24C],2.61
9,YTGPSSSGRFAGREWYYGNVTRHD [Q24D],2.51
10,YTGPSSSGRFAGREWYYGNVTRHE [Q24E],1.41
11,YTGPSSSGRFAGREWYYGNVTRHF [Q24F],1.59
12,YTGPSSSGRFAGREWYYGNVTRHG [Q24G],1.56
13,YTGPSSSGRFAGREWYYGNVTRHH [Q24H],1.85
14,YTGPSSSGRFAGREWYYGNVTRHI [Q24I],2.01
15,YTGPSSSGRFAGREWYYGNVTRHK [Q24K],2.42
16,YTGPSSSGRFAGREWYYGNVTRHL [Q24L],2.07
17,YTGPSSSGRFAGREWYYGNVTRHM [Q24M],2.44
18,YTGPSSSGRFAGREWYYGNVTRHN [Q24N],1.62
19,YTGPSSSGRFAGREWYYGNVTRHP [Q24P],2.07
20,YTGPSSSGRFAGREWYYGNVTRHR [Q24R],1.55
21,YTGPSSSGRFAGREWYYGNVTRHS [Q24S],2.25
22,YTGPSSSGRFAGREWYYGNVTRHT [Q24T],1.18
23,YTGPSSSGRFAGREWYYGNVTRHV [Q24V],2.17
24,YTGPSSSGRFAGREWYYGNVTRHW [Q24W],2.83
25,YTGPSSSGRFAGREWYYGNVTRHY [Q24Y],1.72

# Variants of: B2
# Assay: as above
# Details: c terminus: a fixed tail appended
row,Variant,protein stability index
1,CKGAFPARLKKVLIVGAPIWFRVP [L1C],3.38
2,IKGAFPARLKKVLIVGAPIWFRVP [L1I],4.73
3,KKGAFPARLKKVLIVGAPIWFRVP [L1K],2.78
4,SKGAFPARLKKVLIVGAPIWFRVP [L1S],4.61
5,VKGAFPARLKKVLIVGAPIWFRVP [L1V],3.26
6,WKGAFPARLKKVLIVGAPIWFRVP [L1W],2.11
7,LAGAFPARLKKVLIVGAPIWFRVP [K2A],2.1
8,LFGAFPARLKKVLIVGAPIWFRVP [K2F],1.26
9,LLGAFPARLKKVLIVGAPIWFRVP [K2L],3.37
10,LNGAFPARLKKVLIVGAPIWFRVP [K2N],2.18
11,LRGAFPARLKKVLIVGAPIWFRVP [K2R],3.96
12,LKAAFPARLKKVLIVGAPIWFRVP [G3A],2.89
13,LKDAFPARLKKVLIVGAPIWFRVP [G3D],3.16
14,LKKAFPARLKKVLIVGAPIWFRVP [G3K],3.39
15,LKSAFPARLKKVLIVGAPIWFRVP [G3S],3.35
16,LKGDFPARLKKVLIVGAPIWFRVP [A4D],3.24
17,LKGFFPARLKKVLIVGAPIWFRVP [A4F],2.49
18,LKGIFPARLKKVLIVGAPIWFRVP [A4I],3.45
19,LKGLFPARLKKVLIVGAPIWFRVP [A4L],3.88
20,LKGQFPARLKKVLIVGAPIWFRVP [A4Q],2.61
21,LKGAIPARLKKVLIVGAPIWFRVP [F5I],3.12
22,LKGALPARLKKVLIVGAPIWFRVP [F5L],3.82

row,Variant,protein stability index
1,LKGAPPARLKKVLIVGAPIWFRVP [F5P],2.49
2,LKGATPARLKKVLIVGAPIWFRVP [F5T],2.25
3,LKGAFHARLKKVLIVGAPIWFRVP [P6H],2.28
4,LKGAFMARLKKVLIVGAPIWFRVP [P6M],1.86
5,LKGAFPFRLKKVLIVGAPIWFRVP [A7F],3.16
6,LKGAFPQRLKKVLIVGAPIWFRVP [A7Q],2.24
7,LKGAFPVRLKKVLIVGAPIWFRVP [A7V],2.57
8,LKGAFPAFLKKVLIVGAPIWFRVP [R8F],2.79
9,LKGAFPAGLKKVLIVGAPIWFRVP [R8G],2.76
10,LKGAFPALLKKVLIVGAPIWFRVP [R8L],2.2
11,LKGAFPAMLKKVLIVGAPIWFRVP [R8M],2.46
12,LKGAFPANLKKVLIVGAPIWFRVP [R8N],2.74
13,LKGAFPASLKKVLIVGAPIWFRVP [R8S],3.94
14,LKGAFPAWLKKVLIVGAPIWFRVP [R8W],2.35
15,LKGAFPARFKKVLIVGAPIWFRVP [L9F],1.64
16,LKGAFPARKKKVLIVGAPIWFRVP [L9K],2.57
17,LKGAFPARVKKVLIVGAPIWFRVP [L9V],4.71
18,LKGAFPARLQKVLIVGAPIWFRVP [K10Q],2.94
19,LKGAFPARLSKVLIVGAPIWFRVP [K10S],3.47
20,LKGAFPARLYKVLIVGAPIWFRVP [K10Y],2.2
21,LKGAFPARLKEVLIVGAPIWFRVP [K11E],2.73
22,LKGAFPARLKFVLIVGAPIWFRVP [K11F],4.03
